Experimental data: patent publication US20260240831A1, “CANCER STRATIFICATION AND TREATMENT” (Deutsches Krebsforschungszentrum Stiftung des öffentlichen …, priority 2023, published 2026)
“Also recorded” adds a separate entry of the source.

B1: NOTUM: Wnt antagonist notum polypeptide (Genbank Acc No. NP_848588.3), overexpressed in PDX GBM cells (protein, UniProt Q6P988 20-496, looked up)
Palmitoleoyl-protein …: SEGRKTWRRRGQQPPPPPRTEAAPAAGQPVESFPLDFTAVEGNMDSFMAQVKSLAQSLYPCSAQQLNEDLRLHLLLNTSVTCNDGSPAGYYLKESRGSRRWLLFLEGGWYCFNRENCDSRYDTMRRLMSSRDWPRTRTGTGILSSQPEENPYWWNANMVFIPYCSSDVWSGASSKSEKNEYAFMGALIIQEVVRELLGRGLSGAKVLLLAGSSAGGTGVLLNVDRVAEQLEKLGYPAIQVRGLADSGWFLDNKQYRHTDCVDTITCAPTEAIRRGIRYWNGVVPERCRRQFQEGEEWNCFFGYKVYPTLRCPVFVVQWLFDEAQLTVDNVHLTGQPVQEGLRLYIQNLGRELRHTLKDVPASFAPACLSHEIIIRSHWTDVQVKGTSLPRALHCWDRSLHDSHKASKTPLKGCPVHLVDSCPWPHCNPSCPTVRDQFTGQEMNVAQFLMHMGFDMQTVAQPQGLEPSELLGMLSNGS
B2: SFRP1: secreted Wnt antagonist; human SFRP1 cloned downstream of the TCF/Lef promoter, lentivirally overexpressed in GBM cells (protein, UniProt Q8N474 32-314, looked up)
Secreted frizzled-related …: SEYDYVSFQSDIGPYQSGRFYTKPPQCVDIPADLRLCHNVGYKKMVLPNLLEHETMAEVKQQASSWVPLLNKNCHAGTQVFLCSLFAPVCLDRPIYPCRWLCEAVRDSCEPVMQFFGFYWPEMLKCDKFPEGDVCIAMTPPNATEASKPQGTTVCPPCDNELKSEAIIEHLCASEFALRMKIKEVKKENGDKKIVPKKKKPLKLGPIKKKDLKKLVLYLKNGADCPCHQLDNLSHHFLIMGRKVKSQYLLTAIHKWDKKNKEFKNFMKKMKNHECPTFQSVFK

Experiments:
PDX GBMs [1] = experiment: Survival of mice bearing Wnt-antagonist-overexpressing T6 PDX GBM; format: in vivo, mouse; conditions: for overall survival: overexpression under TCF/Lef promoter in PDX vs Wnt-reporter controls
From the text: We identified the secreted Wnt antagonist SFRP1 as being implicated in the Q-A transition in the healthy SVZ. […] Similarly, [22] reports a role of SFRP1 in regulating the activation of human NSCs, and data from our own lab implicates its most-conserved paralog, SFRP5, in the activation of murine NSCs. Following these evidences and in order to target Wnt-active tumor cells, we cloned human SFRP1 downstream of the TCF/Lef promoter and generated T6 PDA and PDX tumors as outlined previously.
To allow sorting of human GBM cells, cells were infected with the 7TGC (Addgene plasmid #24304) lentiviral vector at a multiplicity of infection (MOI) of 5. Expression of the transduction marker (mCherry) was confirmed by FACS analysis. Second-generation, self-inactivating, replication deficient lentiviral particles were produced, purified and titrated as described previously ([32]).
For ortotopic injection of lentivirally transduced primary GBM cells into the mouse brain, 5×10^5 cells were cultured as single cell suspension overnight. Newly formed spheres were resuspended in 2 μl of Matrigel, loaded into a NanoFil syringe and stereotactically injected into the striatum (2.5 mm lateral to the bregma at a depth of 3.0 mm) of 8-10 week-old Fox Chase SCID-Beige mice under anesthesia. Tumor growth was longitudinally monitored by magnetic resonance imaging at the Small Animal Imaging Center at the DKFZ. Upon reaching termination criteria, mice were sacrificed and brains were collected after transcardial perfusion. For perfusion, mice were anesthetized by intraperitoneal injection of 800 μl of perfusion solution. After opening the thoracic cavity exposing heart, transcardial perfusion was carried out with 10 ml of ice cold HBSS.

PDX GBMs [2] = experiment: scRNA-seq with ptalign cell states of Wnt-antagonist-overexpressing PDX samples; format: in vivo, mouse; conditions: for Activation state (ptalign cell state) / tumor Differentiation (ptalign aligned pseudotime) / tumor Quiescence (ptalign cell state, incl. astroQ): PDX vs control Wnt-reporter PDX
Procedure: For isolation of the xenografted human GBM cells, tumor bearing mouse brains were dissected and single cell suspension was prepared using Brain Tumor Dissociation Kit (P) and gentleMACS Octo Dissociator with Heaters (Miltenyi) according to manufacturer's instructions. mCherry+ cell population was index sorted into 384 well-plates (Eppendorf Lobind). Microplates containing cell lysates were briefly centrifuged, snap frozen on dry ice and were stored at −80° C. Sytox Blue (Life Technologies, 1:1000) was used in all experiments as a dead cell indicator. Index sorting of single cells as well as sorting of bulk samples was carried out using a 100 micron nozzle at a BD FACSAria II or BD FACSAria Fusion at the Flow Cytometry Core Facility at the DKFZ.
Single cell RNA-sequencing libraries from patient-derived xenografts were prepared using Smart-seq3 platform as previously described (Hagemann-Jensen, Nature Biotechnology, 2020) with minor modifications. The protocol was automated and miniaturized by incorporating liquid handling platforms including Mosquito HV (STPLabtech), Mantix (Formulatrix) and Viaflo 384 (Integra). Briefly, plates were incubated at 72° C. for 10 min to facilitate lysis and denaturation of secondary structures in the RNA. Lysed cells were subjected to reverse transcription in 2 μl using Maxima H-minus reverse transcriptase (Thermo Scientific), an oligo(dT) primer and a template-switching oligonucleotide encompassing an 8-bp unique molecular identifier (IDT). In a randomly selected set of wells, we included ERCC Spike-ins (Ambion) at a 1:2500000 dilution. Full length cDNAs were amplified for 22 cycles of PCR using KAPA HiFi DNA polymerase (KAPA Biosystems). cDNA samples were purified with Ampure XP beads at a 1:0.8 ratio and cDNA quality in randomly selected 10 wells/plate was assessed on a High Sensitivity Bioanalyzer chip (Agilent). cDNA concentrations were quantified using Quant-it PicoGreen dsDNA Assay kit (Thermo Scientific) and Synergy LX multi-mode microplate reader (Biotek). cDNAs were normalized to 250-500 pg μl^−1. 100-200 pg of cDNA per sample was used for tagmentation in 1.2 μl using Illumina XT DNA sample preparation kit. Libraries were finally amplified for 11 cycles of PCR in 4 μl using custom-designed Nextera index primers containing 8-bp index barcode sequences with a minimal Levenshtein distance of 4 as previously published (Buenrostro et al., Nature, 2015). Samples were purified with Ampure XP beads at a 1:0.8 ratio and DNA quality in randomly selected 10 wells/plate was assessed on a High Sensitivity Bioanalyzer chip (Agilent). Libraries were quantified as mentioned above and normalized libraries were equimolarly pooled and purified one last time at a 1:0.8 ratio. Prior to sequencing, final library concentration was determined using Qubit dsDNA High Sensitivity Assay kit (Thermo Scientific) and Qubit fluorometer (Invitrogen) and the average fragment size was calculated on a High Sensitivity Bioanalyzer chip (Agilent). Libraries with 1% spiked-in PhiX control (Illumina) were sequenced at the 75-bp paired end on a high output flow cell using an Illumina NextSeq550 instrument at a sequencing depth of ~1 M reads per cell at the sequencing open lab at the DKFZ.
In sequence alignment, the position of one query sequence in a larger reference sequence is ascertained by scoring local sequence similarity until an optimal match is found. We employ a conceptually similar strategy to infer a given query cell's optimal positioning in the space of a reference pseudotime trajectory in a method we call ptalign. The ptalign program requires four central inputs: a query counts table, a reference counts table, a reference pseudotime mapping, and a set of genes capturing the reference pseudotime trajectory. Query cells are then placed along the reference pseudotime according to the dynamic of the correlation of their gene expression along the trajectory genes. […]

T6 PDA = experiment: scRNA-seq with ptalign cell states of SFRP1-overexpressing T6 PDA in human cortical organoids; format: cell-based; conditions: 2-week PDA replicates, compared with PDX (not shown)
Procedure: For injection of lentivirally transduced primary GBM cells into human brain organoids, 3×10^4 cells were cultured as single cell suspension overnight. Newly formed spheres were resuspended in 1 μl of Differentiation Medium with vitamin A, loaded into a NanoFil syringe and injected into the core of 2 month-old organoids under a dissection microscope. Tumor bearing organoids were maintained in Differentiation Medium with vitamin A on an orbital shaker (70 RPM) for 15 days at 5% CO2 and 37° C.
In sequence alignment, the position of one query sequence in a larger reference sequence is ascertained by scoring local sequence similarity until an optimal match is found. We employ a conceptually similar strategy to infer a given query cell's optimal positioning in the space of a reference pseudotime trajectory in a method we call ptalign. The ptalign program requires four central inputs: a query counts table, a reference counts table, a reference pseudotime mapping, and a set of genes capturing the reference pseudotime trajectory. Query cells are then placed along the reference pseudotime according to the dynamic of the correlation of their gene expression along the trajectory genes. […] The quality of an assigned pseudotime is determined via the computation of a dynamic time warping (DTW) matrix over the pseudotime-binned reference and the equally binned query. […]

PDX GBMs [3] = experiment: Tumor IHC morphology of SFRP1-overexpressing PDX; format: in vivo; conditions: mouse cortex, vs control Wnt-reporter PDX

Molecule	overall survival (PDX GBMs [1])	Activation state (ptalign cell state) (PDX GBMs [2])	tumor Differentiation (ptalign aligned pseudotime) (PDX GBMs [2])	tumor Quiescence (ptalign cell state, incl. astroQ) (PDX GBMs [2])	survival longer than control, on average (PDX GBMs [1]; SFRP1 induction in PDX GBMs, before the experiment was terminated)	overall survival (PDX GBMs [1]; listed as sFRP1)	cycling cells (PDX GBMs [2]; PDX vs control)	effects on Quiescence, Activation and cycling cells in PDA (T6 PDA)	tumor cell morphology (IHC) (PDX GBMs [3])
B1	significantly increased survival	concomitant reduction in activation	without disturbing differentiation	significantly increased quiescence					
B2	significant increase in overall survival	concomitant reduction in the Activation state	without disturbing differentiation; also recorded: not affected	significantly increased quiescence; also recorded: significant increase in tumor Quiescence	1 month	significantly increased survival	relative increase in cycling cells	consistent yet weaker	extensive morphological changes; also recorded: dominant astrocyte-like morphology
